# Results taken from patent publication US20250152742A1, “COMPOSITIONS AND METHODS FOR NEUROLOGICAL DISEASES” (Trames Bio, Inc., priority 2022, published 2025).
# Test system: engineered chimeric receptor SEQ ID NO: 33 and its mutants (human α7-nAChR ligand binding domain / human GlyRα1 ion pore domain) in Lenti-X 293T cells
# Assay: YFP fluorescence quenching anion reporter plate reader assay (percent quench, EC50)
# Assay type: cell-based
# Details: for YFP fluorescence quenching using CNL001 (percent quench): receptor named in row; for YFP fluorescence quenching using Varenicline, 3 nM var: ligand Varenicline 3 nM; for YFP fluorescence quenching using Varenicline, 30 nM var: ligand Varenicline 30 nM; for YFP fluorescence quenching using Varenicline, 300 nM var: ligand Varenicline 300 nM; for YFP fluorescence quenching using Varenicline, 500 nM var: ligand Varenicline 500 nM; for YFP fluorescence quenching using Varenicline, 1 uM var: ligand Varenicline 1 uM
# In short: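 Lenti-X 293T cells co-expressing an anion-quenchable YFP were transiently transfected with receptor DNA, then ligand was added in NaI-substituted buffer (pH 7.2) after 30 min at 37 °C. Fluorescence was read about 2 min; percent quench = mean of last 10 s over 15 s pre-ligand baseline.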
# [1] = 1 nM CNL001, first column so headed
# [2] = 1 nM CNL001, second column so headed
# [3] = 10 nM CNL001, first column so headed
# [4] = 10 nM CNL001, second column so headed
# [5] = 50 nM CNL001, first column so headed
# [6] = 50 nM CNL001, second column so headed
# [7] = 100 nM CNL001, first column so headed
# [8] = 100 nM CNL001, second column so headed
# [9] = 1 uM CNL001, first column so headed
# [10] = 1 uM CNL001, second column so headed
molecule,measurement,setting,value
"CODA1157: engineered receptor: Q139E, S172D in SEQ ID NO: 33 (protein, synthetic sequence of chimeric LGIC) MRCSPGGVWLALAASLLHVSLQGEFQRKLYKELVKNYNPLERPVANDSQPLTVYFSLSLLQIMDVDEKNQVLTTNIWLQMSWTDHYLQWNVSEYPGVKTVRFPDGQIWKPDILLYNSADERFDATFHTNVLVNSSGHCEYLPPGIFKSSCPMDLKNFPMDVQTCKLKFGSWDYGGWSLDLQMQEADISGYIPNGEWDLVGIPGKRSERFYECCKEPYPDVTFTVTMRRRMGYYLIQMYIPSLLIVILSWISFWINMDAAPARVGLGITTVLTMTTQSSGSRASLPKVSYVKAIDIWMAVCLLFVFSALLEYAAVNFVSRQHKELLRFRRKRRHHKSPMLNLFQEDEAGEGRFNFSAYGMGPACLQAKDGISVKGANNSNTTNPPPAPSKSPEEMRKLFIQRAKKIDKISRIGFPMAFLIFNMFYWIIYKIVRREDVHNQ",YFP fluorescence quenching using CNL001 (percent quench),[1],68.362%
same,YFP fluorescence quenching using CNL001 (percent quench),[2],69.495%
same,YFP fluorescence quenching using CNL001 (percent quench),[3],75.078%
same,YFP fluorescence quenching using CNL001 (percent quench),[4],74.193%
same,YFP fluorescence quenching using CNL001 (percent quench),[5],77.481%
same,YFP fluorescence quenching using CNL001 (percent quench),[6],77.205%
same,YFP fluorescence quenching using ABT-126 (percent quench),50 nM abt (ABT-126),−26.77%
same,YFP fluorescence quenching using CNL001 (percent quench),[7],77%
same,YFP fluorescence quenching using CNL001 (percent quench),[8],77.042%
same,YFP fluorescence quenching (percent quench),100 nM CNL002,80.62%
same,YFP fluorescence quenching using ABT-126 (percent quench),100 nM abt (ABT-126),−24.64%
same,YFP fluorescence quenching using ABT-126 (percent quench),300 nM abt (ABT-126),−10.64%
same,YFP fluorescence quenching using CNL001 (percent quench),[9],78.2%
same,YFP fluorescence quenching using CNL001 (percent quench),[10],76.244%
same,YFP fluorescence quenching (percent quench),1 uM CNL002,81.32%
same,YFP fluorescence quenching using ABT-126 (percent quench),1 uM abt (ABT-126),19.57%
same,YFP fluorescence quenching using ABT-126 (percent quench),10 uM abt (ABT-126),55.64%
same,YFP fluorescence quenching (percent quench),10 uM ach (acetylcholine),−36.89%
same,YFP fluorescence quenching (percent quench),30 uM ach (acetylcholine),−37.78%
same,YFP fluorescence quenching (percent quench),100 uM ach (acetylcholine),−25.67%
same,YFP fluorescence quenching (percent quench),300 uM ach (acetylcholine),−18.94%
same,YFP fluorescence quenching (percent quench),1 mM ach (acetylcholine),16.38%
same,YFP fluorescence quenching (percent quench),3 mM ach (acetylcholine),45.71%
same,"YFP fluorescence quenching using Varenicline, 3 nM var",first column,−0.225
same,"YFP fluorescence quenching using Varenicline, 3 nM var",second column,−1.954
same,"YFP fluorescence quenching using Varenicline, 30 nM var",first column,1.269
same,"YFP fluorescence quenching using Varenicline, 30 nM var",second column,5.972
same,"YFP fluorescence quenching using Varenicline, 300 nM var",first column,6.84
same,"YFP fluorescence quenching using Varenicline, 300 nM var",second column,5.943
same,"YFP fluorescence quenching using Varenicline, 500 nM var",first column,8.717
same,"YFP fluorescence quenching using Varenicline, 500 nM var",second column,6.41
same,"YFP fluorescence quenching using Varenicline, 1 uM var",first column,5.635
same,"YFP fluorescence quenching using Varenicline, 1 uM var",second column,7.068
"CODA1173: engineered receptor: S172D, Y210W in SEQ ID NO: 33 (protein, synthetic sequence of chimeric LGIC) MRCSPGGVWLALAASLLHVSLQGEFQRKLYKELVKNYNPLERPVANDSQPLTVYFSLSLLQIMDVDEKNQVLTTNIWLQMSWTDHYLQWNVSEYPGVKTVRFPDGQIWKPDILLYNSADERFDATFHTNVLVNSSGHCQYLPPGIFKSSCPMDLKNFPMDVQTCKLKFGSWDYGGWSLDLQMQEADISGYIPNGEWDLVGIPGKRSERFWECCKEPYPDVTFTVTMRRRMGYYLIQMYIPSLLIVILSWISFWINMDAAPARVGLGITTVLTMTTQSSGSRASLPKVSYVKAIDIWMAVCLLFVFSALLEYAAVNFVSRQHKELLRFRRKRRHHKSPMLNLFQEDEAGEGRFNFSAYGMGPACLQAKDGISVKGANNSNTTNPPPAPSKSPEEMRKLFIQRAKKIDKISRIGFPMAFLIFNMFYWIIYKIVRREDVHNQ",YFP fluorescence quenching using CNL001 (percent quench),[1],16.321%
same,YFP fluorescence quenching using CNL001 (percent quench),[2],30.264%
same,YFP fluorescence quenching using CNL001 (percent quench),[3],61.978%
same,YFP fluorescence quenching using CNL001 (percent quench),[4],65.343%
same,YFP fluorescence quenching using CNL001 (percent quench),[5],73.006%
same,YFP fluorescence quenching using CNL001 (percent quench),[6],74.903%
same,YFP fluorescence quenching using ABT-126 (percent quench),50 nM abt (ABT-126),5.15%
same,YFP fluorescence quenching using CNL001 (percent quench),[7],76%
same,YFP fluorescence quenching using CNL001 (percent quench),[8],76.759%
same,YFP fluorescence quenching (percent quench),100 nM CNL002,70.15%
same,YFP fluorescence quenching using ABT-126 (percent quench),100 nM abt (ABT-126),25.08%
same,YFP fluorescence quenching using ABT-126 (percent quench),300 nM abt (ABT-126),66.86%
same,YFP fluorescence quenching using CNL001 (percent quench),[9],76.928%
same,YFP fluorescence quenching using CNL001 (percent quench),[10],76.619%
same,YFP fluorescence quenching (percent quench),1 uM CNL002,77.33%
same,YFP fluorescence quenching using ABT-126 (percent quench),1 uM abt (ABT-126),66.94%
same,YFP fluorescence quenching using ABT-126 (percent quench),10 uM abt (ABT-126),78.67%
same,YFP fluorescence quenching (percent quench),1 mM ach (acetylcholine),−6.12%
same,YFP fluorescence quenching (percent quench),3 mM ach (acetylcholine),11.31%
same,"YFP fluorescence quenching using Varenicline, 3 nM var",first column,9.211
same,"YFP fluorescence quenching using Varenicline, 3 nM var",second column,7.193
same,"YFP fluorescence quenching using Varenicline, 30 nM var",first column,7.821
same,"YFP fluorescence quenching using Varenicline, 30 nM var",second column,9.078
same,"YFP fluorescence quenching using Varenicline, 300 nM var",first column,6.933
same,"YFP fluorescence quenching using Varenicline, 300 nM var",second column,8.36
same,"YFP fluorescence quenching using Varenicline, 500 nM var",first column,5.501
same,"YFP fluorescence quenching using Varenicline, 500 nM var",second column,7.04
same,"YFP fluorescence quenching using Varenicline, 1 uM var",first column,7.174
same,"YFP fluorescence quenching using Varenicline, 1 uM var",second column,5.185
